Experiments:
Assay type in all cases: binding
human 5T4 antigen = biological target: T1, human 5T4 antigen (Homo sapiens, UniProt Q13641); assay: BIACORE competition assay: second antibody after saturation with first antibody
T1 sequence (Q13641 32-420): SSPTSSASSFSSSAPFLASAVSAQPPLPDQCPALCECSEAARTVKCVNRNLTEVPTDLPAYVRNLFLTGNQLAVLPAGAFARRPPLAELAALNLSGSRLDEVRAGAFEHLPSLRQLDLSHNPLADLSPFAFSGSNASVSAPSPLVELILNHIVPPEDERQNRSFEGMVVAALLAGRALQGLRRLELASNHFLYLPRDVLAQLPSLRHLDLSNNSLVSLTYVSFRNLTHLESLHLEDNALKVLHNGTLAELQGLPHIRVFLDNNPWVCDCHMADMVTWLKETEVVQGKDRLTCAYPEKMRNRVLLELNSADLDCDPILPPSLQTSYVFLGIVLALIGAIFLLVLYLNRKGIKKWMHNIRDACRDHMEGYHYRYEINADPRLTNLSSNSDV
Method: Epitope mapping of the H8, A1, A2, and A3 antibodies was also performed using BIACORE® using a CM5 chip with bound human 5T4 antigen. The chip was saturated with H8, A1, A2, or A3 antibody, and a first response was measured. The chip was then saturated with a second antibody from among the H8, A1, A2, and A3 antibodies, and a second response was measured. For multiple experiments, the chip was regenerated by dissociation of the bound antibodies in 10 mM glycine, pH 1.5, followed by a buffer wash. The percentages shown are the response units measured upon binding by a second antibody directly to the CM5 chip divided by the response units measured upon binding of the second antibody to a CM5 chip saturated with a first antibody.
The epitopes bound by the H8 and A3 antibodies are sterically close to each other such that the rate of association with antigen is decreased when binding of H8 is assayed in the presence of A3, and vice versa. Similar results were obtained using the chimeric and humanized H8, A1, A2, and A3 antibodies, which were prepared as described in Example 7 herein below.

rat 5T4 ectodomain Fc = biological target: T2, rat 5T4 ectodomain Fc (Rattus norvegicus, UniProt Q5PQV5); assay: Epitope mapping ELISA, 5T4 ectodomain Fc fusions; set-up: key: +: binding; −: no binding; +/−: partial binding
T2 construct: rat 5T4 (amino acids 1-361); made in house; host or cells: COS-1 cells (transient)
T2 sequence (Q5PQV5 32-361): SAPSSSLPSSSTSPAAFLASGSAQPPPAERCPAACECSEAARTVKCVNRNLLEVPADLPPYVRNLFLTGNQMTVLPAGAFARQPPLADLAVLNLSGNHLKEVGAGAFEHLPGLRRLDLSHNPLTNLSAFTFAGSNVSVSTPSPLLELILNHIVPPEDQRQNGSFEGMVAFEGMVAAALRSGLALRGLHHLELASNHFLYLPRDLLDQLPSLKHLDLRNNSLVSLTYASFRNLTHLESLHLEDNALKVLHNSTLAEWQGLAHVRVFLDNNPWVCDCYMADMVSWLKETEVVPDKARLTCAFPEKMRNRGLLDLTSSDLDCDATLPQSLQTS
Method: (§1) To identify the epitopes to which each of the A1, A2, A3, and H8 antibodies bind, ELISA assays were performed using (1) 5T4 ectodomain Fc constructs with deleted or mutated sequences, and (2) 5T4 chimera constructs transiently expressed in COS-1 cells. The ectodomain includes the amino-terminal region, two leucine-rich repeats, and the intervening hydrophilic region. Fusion proteins containing a 5T4 ectodomain and a Fc constant regions from human IgG1 were prepared using mouse 5T4 (amino acids 1-361), rat 5T4 (amino acids 1-361), cynomologous monkey 5T4 (amino acids 1-355), chimpanzee 5T4 (amino acids 1-355), and black-tailed marmoset (amino acids 1-355). The 5T4 chimera constructs are depicted in FIG. 5. The binding results are summarized in Table 5, which indicates specific binding, partial binding, or lack of binding, by each of the H8, A1, A2, and A3 antibodies.

[1] = system: human/mouse 282-361 5T4 chimera (with or without N-link at position 344); assay: Epitope mapping ELISA, human/mouse 5T4 chimeras; set-up: key: +: binding; −: no binding; +/−: partial binding; conditions: human/mouse 282-361 (with or without N-link at position 344)
Method: as §1

[2] = system: human/mouse 173-258 5T4 chimera; assay: Epitope mapping ELISA, human/mouse 5T4 chimeras; set-up: key: +: binding; −: no binding; +/−: partial binding
Method: as §1

[3] = system: human/mouse 83-163 5T4 chimera; assay: Epitope mapping ELISA, human/mouse 5T4 chimeras; set-up: key: +: binding; −: no binding; +/−: partial binding
Method: as §1

[4] = biological target: T3, human/mouse 173-361 5T4 chimera (Homo sapiens, UniProt Q13641, A205S/A340S/D319A/E189Q/E336D/G276S/G317D/H238Y/H301Y/I287V/I347V/INS199AFEGMV/L204R/L281W/P285A/P346A/P350Q/Q210R/Q282H/Q316P/R193G/R207L/R213T/R288K/S242R/T307A/V176E/V200A/V229L/V252A/V333G/Y224F/Y325F); assay: Epitope mapping ELISA, human/mouse 5T4 chimeras; set-up: key: +: binding; −: no binding; +/−: partial binding
T3 construct: made in house; host or cells: COS-1 cells (transient)
T3 sequence (Q13641 with tags, fused parts or gaps V176E/E189Q/R193G/INS199AFEGMV/V200A/L204R/A205S/R207L/Q210R/R213T/Y224F/V229L/H238Y/S242R/V252A/G276S/L281W/Q282H/P285A/I287V/R288K/H301Y/T307A/Q316P/G317D/D319A/Y325F/V333G/E336D/A340S/P346A/I347V/P350Q limits assumed): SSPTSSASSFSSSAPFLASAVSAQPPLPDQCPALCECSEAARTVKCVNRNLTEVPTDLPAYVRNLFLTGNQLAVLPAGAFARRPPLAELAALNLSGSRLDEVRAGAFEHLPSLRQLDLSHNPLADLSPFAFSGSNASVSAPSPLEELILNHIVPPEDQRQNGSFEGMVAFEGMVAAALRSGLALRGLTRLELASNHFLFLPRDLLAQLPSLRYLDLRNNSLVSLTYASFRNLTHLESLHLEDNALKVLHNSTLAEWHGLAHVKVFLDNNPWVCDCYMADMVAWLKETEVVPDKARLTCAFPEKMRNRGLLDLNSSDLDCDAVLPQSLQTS
Method: as §1

B1: A2: murine anti-5T4 monoclonal antibody (IgG2b heavy chain); VH residues 19-135 of SEQ ID NO:6, VL residues 23-130 of SEQ ID NO:8 (antibody, listed as Mus musculus, V domains shown)
VH: MEWRIFLFILSGTAGVHSQVQLQQSRPELVKPGASVKMSCKASGYTFTDYVISWVKQRTGQGLEWIGEIYPGSNSIYYNEKFKGRATLTADKSSSTAYMQLSSLTSEDSAVYFCAMGGNYGFDYWGQGTTLTVSS
VL: MDFQVQIFSFLLISASVIMSRGQIVLTQSPAIMSASLGERVTLTCTASSSVNSNYLHWYQQKPGSSPKLWIYSTSNLASGVPARFSGSGSGTSYSLTISSMEAEDAATYYCHQYHRSPLTFGAGTKLELK
modifications: (1)..(18) leader sequence; (19)..(135) heavy chain variable region; (44)..(53) CDR1; (68)..(84) CDR2; (117)..(124) CDR3; (1)..(22) leader sequence; (23)..(130) light chain variable region; (46)..(56) CDR1; (73)..(79) CDR2; (112)..(120) CDR3
Human 5T4 antigen; 1st antibody A1
  Percentage Response of Second Antibody Following Saturation With First Antibody: 98%
Human 5T4 antigen; 1st antibody A3
  Percentage Response of Second Antibody Following Saturation With First Antibody: 94%
Rat 5T4 ectodomain Fc
  binding to 5T4 antigen construct: −
[1]
  binding to 5T4 antigen construct: −
[2]
  binding to 5T4 antigen construct: +
[3]
  binding to 5T4 antigen construct: +
[4]
  binding to 5T4 antigen construct: −

Reference: patent publication US20070231333A1, “ANTI-5T4 ANTIBODIES AND USES THEREOF” (Wyeth, priority 2006, published 2007)
